Measurements reported in PMC5685557 (Structure (London, England : 1993), 2017).
Values joined by “and” are separate entries in the source; they are usually repeats but may differ in a detail not shown here. Equal values may be shown once.

Legend:
non-reducing SDS-PAGE = molecular target: the molecule itself; experiment: non-reducing SDS-PAGE
cross-linking = molecular target: the molecule itself; experiment: cross-linking
SEC [1] = molecular target: the molecule itself; experiment: SEC
SEC-SAXS = molecular target: the molecule itself; experiment: SEC-SAXS
SEC [2] = molecular target: the molecule itself; experiment: SEC; remark: listed apart in the source

Row | Protein | stoichiometry N (non-reducing SDS-PAGE) | stoichiometry N (cross-linking) | binding result (SEC [1]) | stoichiometry N (SEC-SAXS) | stoichiometry N (SEC [2])
1 | myocilin N-terminal domain construct NTD_(33-226), wild type (domain or fragment, human, UniProt Q99972 33-226, looked up) RTAQLRKANDQSGRCQYTFSVASPNESSCPEQSQAMSVIHNLQRDSSTQRLDLEATKARLSSLESLLHQLTLDQAARPQETQEGLQRELGTLRRERDQLETQTRELETAYSNLLRDKSVLEEEKKRLRQENENLARRLESSSQEVARLRRGQCPQTRDTARAVPPGSREVSTWNLDTLAFQELKSELTEVPASR | ~8 | 2 and 4 |  |  | 
2 | NTD_(33-226) (C47S/C61S/C185S) (domain or fragment, human, UniProt Q99972 33-226, looked up) RTAQLRKANDQSGRSQYTFSVASPNESSSPEQSQAMSVIHNLQRDSSTQRLDLEATKARLSSLESLLHQLTLDQAARPQETQEGLQRELGTLRRERDQLETQTRELETAYSNLLRDKSVLEEEKKRLRQENENLARRLESSSQEVARLRRGQSPQTRDTARAVPPGSREVSTWNLDTLAFQELKSELTEVPASR |  |  | binds |  | 
3 | mouse myocilin leucine zipper construct mLZ_(93-171) (domain or fragment, UniProt O70624 93-171, looked up) VTGTQEAQEGLQGQLGALRRERDQLETQTRDLEAAYNNLLRDKSALEEEKRQLEQENEDLARRLESSSEEVTRLRRGQC |  |  |  | 2.2 | 
4 | myocilin coiled-coil construct CC_(69-184) (domain or fragment, human, UniProt Q99972 69-184, looked up) SVIHNLQRDSSTQRLDLEATKARLSSLESLLHQLTLDQAARPQETQEGLQRELGTLRRERDQLETQTRELETAYSNLLRDKSVLEEEKKRLRQENENLARRLESSSQEVARLRRGQ |  |  |  |  | 4
5 | myocilin construct CC_(33-111) (domain or fragment, human, UniProt Q99972 33-111, looked up) RTAQLRKANDQSGRCQYTFSVASPNESSCPEQSQAMSVIHNLQRDSSTQRLDLEATKARLSSLESLLHQLTLDQAARPQ |  | 2 |  | 2.8 | 4
6 | myocilin coiled-coil construct CC_(60-185) (domain or fragment, human, UniProt Q99972 60-185, looked up) SCPEQSQAMSVIHNLQRDSSTQRLDLEATKARLSSLESLLHQLTLDQAARPQETQEGLQRELGTLRRERDQLETQTRELETAYSNLLRDKSVLEEEKKRLRQENENLARRLESSSQEVARLRRGQC |  |  |  | 4.9 | 
7 | myocilin coiled-coil construct CC_(112-185) (domain or fragment, human, UniProt Q99972 112-185, looked up) ETQEGLQRELGTLRRERDQLETQTRELETAYSNLLRDKSVLEEEKKRLRQENENLARRLESSSQEVARLRRGQC |  |  |  | 2.4 | 2
8 | myocilin coiled-coil construct CC_(69-185) (domain or fragment, human, UniProt Q99972 69-185, looked up) SVIHNLQRDSSTQRLDLEATKARLSSLESLLHQLTLDQAARPQETQEGLQRELGTLRRERDQLETQTRELETAYSNLLRDKSVLEEEKKRLRQENENLARRLESSSQEVARLRRGQC | 2 | 4 |  | 3.6 | 
